In article PMC8479507 (Cell Reports, 2021):

Target: SARS-CoV-2 receptor-binding domain (RBD) (SARS-CoV-2 (Wuhan-Hu-1), UniProt P0DTC2)
Assay: cell-based or functional assay

B1: monoclonal antibody 910-30, IgG (antibody, V domains shown)
VH: EVQLVESGGGLVQPGGSLRLSCAASGFTVSSNYMSWVRQAPGKGLEWVSLIYSGGSTYYADSVKGRFTISRHNSKNTLYLQMNSLRAEDTAVYYCARIYGDYAWGQGTLVTVSS
VL: not shown
IC50 of neutralisation of authentic SARS-CoV-2; blocks RBD binding to ACE2: 0.142 µg/mL
